The source of these data is US20230279105A1 (SINGLE CELL TECHNOLOGY, published 2023).

This experiment deals with T1, Human TIM-3 Human Fc tagged protein (human, fluorescently labeled with HiLyte Fluor 555 (sites not given)).
T1 construct: Bought construct; also called TIM-3 protein tagged with human Fc; ACROBiosystems catalog no: TM3-H5258
The experiment can be described thus: capture slide probed with labeled TIM-3-Fc.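 Note: IgG from single CD138-enriched plasma cells, isolated from lymphocytes, immobilized on a derivatized glass slide.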

Residue numbers refer to the chain shown, from its start.

B1: SCT-Fa072 (antibody, V domains shown)
VH: EVQLVESGGDLVKPGGSLKLSCAASGFTFSDYGMSWVRQTPDKRLEWVATISSGGSYTYYADSVKGRFTISRDNAKNTLYLQMSSLKSEDTAMYFCTRHEITTVLSTDYAMDYWGQGTSVTVSS
VL: DVVMTQTPLSLPVSLGDQASISCRSSQSLVHSIGNTYLHWYLQKPGQSPKLLIYKVSNRFSGVPDRFSGSGSGTDFTLKIIRVEAEDLGVYFCSQSTHIPWTFGGGTKLELR
notes: murine IgG
As for B1, the binding result is recorded as “binds”.

B2: SCT-Fa094 (antibody, V domains shown)
VH: QVLLQQPGAELVRPGTSVKLSCKASGYTFTNFWMHWVKQRPGQGLEWIGVIDPSDISTHYNQNFKGKAILTVDTSSSSAYMQLSSLTSEDSAVYYCARNDYDGGYFDYWGQGTTLTVSS
VL: B1 VL with S32G, I33N, K55T, I81S, S96T, T97I, I99A, L111I, R112K
notes: murine IgG
Take B2: the binding result was “binds”.

B3: SCT-Fa050 (antibody, V domains shown)
VH: EVQLQQSGPMLVKPGASVKMSCKASGNTFTAFYMSWVKQSHGKSLEWIGVVNPYNGGAGYNQKFKGKATLTVDKSSSTAYMELNGLTSEDSAVYYCLLWEFAHWGQGTLVTVSA
VL: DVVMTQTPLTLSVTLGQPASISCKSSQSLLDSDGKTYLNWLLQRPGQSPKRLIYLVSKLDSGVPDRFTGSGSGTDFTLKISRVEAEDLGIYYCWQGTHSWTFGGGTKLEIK
notes: murine IgG
Consider B3, for which the binding result is “binds”.

B4: SCT-Fa053 (antibody, V domains shown)
VH: EVQLQQSGPVLVKPGASVKMSCKASGYSFTGYHMNWVKQSHGKSLEWIGIINPYNSATTYNQKFKGKATLTVDKSSSTAYMELNSLTSEDSVVYYCVRGAYGNPLDYWGQGTTLTVSS
VL: DIKMTQSPSSMYASLGERVTITCKASQDINSYLSWFQQKPGKSPKTLIYRANRLVDGVPSRFSGSGSGQDYSLTISSLEYEDMGIYYCLQYDEYPYTFGGGTKLEIK
notes: murine IgG
With B4, the binding result is “binds”.

B5: SCT-Fa092 (antibody, V domains shown)
VH: QIQLVQSGPEMKKPGETVKISCKASGYTFRTYGMSWVKQAPGKGLEWMGWINTYSGEPTYADDFKGRFAFSLETSANTAYLQINNLKNEDTATFFCARAQHYFDWWGQGTTLTVSS
VL: B4 VL with N30D, S34N, N52T, Y94F
notes: murine IgG
Turning to B5, the binding result is listed as “binds”.

B6: SCT-Fa055 (antibody, V domains shown)
VH: EVQLQQSGPVLVKPGASVKMSCKASGYTFTDYHMNWVKQSHGKSLEWIGVISPYNGGTSQNQKFKGKATLTVDKSSSTAYMELNRLTSEDSAVYYCARSDYGSPLDYWGQGTTLTVSS
VL: B4 VL with S34R, T74N, Y94F
notes: murine IgG
Regarding B6, the binding result was “binds”.

B7: SCT-Fa054 (antibody, V domains shown)
VH: B4 VH with L83V, V92L
VL: B4 VL with V55L
notes: murine IgG
Take B7: the binding result is “binds”.

B8: SCT-Fa052 (antibody, V domains shown)
VH: B4 VH with T58S
VL: B4 VL with A51T
notes: murine IgG
Regarding B8, the binding result was “binds”.

B9: SCT-Fa091 (antibody, V domains shown)
VH: B5 VH
VL: B4 VL with N30D, S31R, S34N, N52T, Y94F
notes: murine IgG
For B9, the binding result is listed as “binds”.

B10: SCT-Fa090 (antibody, V domains shown)
VH: B5 VH with T28I
VL: B4 VL with N30D, S34N, N52T, Y94F
notes: murine IgG
B10: the binding result is “binds”.

B11: SCT-Fa061 (antibody, V domains shown)
VH: B4 VH with K13R, G42V, K63N
VL: B4 VL with Q38L, R61G
notes: murine IgG
As for B11, the binding result is on record as “binds”.

B12: SCT-Fa059 (antibody, V domains shown)
VH: B4 VH with K23Q, A57G, T58I, K67R, S77D, E82D
VL: B4 VL with K3R, M11I, K45E, A51T
notes: murine IgG
Consider B12, for which the binding result was “binds”.

B13: SCT-Fa088 (antibody, V domains shown)
VH: QIQLQQSGPELVKPGASVKISCKASGYTFTDYYINWVKQRPGQGLEWIGWIYPGSGNTKYNEKFKGKATLTVDTSSSTAYMQLSSLTSEDSAVYFCARAYDYGFAYWGQGTLVTVSA
VL: SIVMTQTPKFLLVSAGDRVTITCKASQSVSHGVTWYQQKPGQSPKLLISYASNRYTGVPDRFTGSGYGTDFTFTISTVQAEDLAVYFCQQDYSSPYTFGGGTKLEIK
notes: murine IgG
In the case of B13, the binding result is given as “binds”.

B14: SCT-Fa087 (antibody, V domains shown)
VH: B13 VH with Q82H
VL: B13 VL with H31Y, A51S, Y67S
notes: murine IgG
Consider B14, for which the binding result was “binds”.

B15: SCT-Fa086 (antibody, V domains shown)
VH: B13 VH with S77N, A105P
VL: B13 VL with V29M, S30N, H31N, T77A
notes: murine IgG
B15: the binding result is reported as “binds”.

B16: SCT-Fa005 (antibody, V domains shown)
VH: EVHLQQSVAEVVRPGASVNLSCTVSGFNNKNTYMYWVKQRPEQGLEWIGIIDPANGNVKYAPKFQGKATITADTSSNTAYLQLSSLTSEDTAIYYCARGSSRLYYALDYWGQGTSVTVSS
VL: DIVLTQSPASLAVSLGQRATISCRASESVDSYGNSFMHWYQQKPGQPPKLLIYRASNLESGIPARFSGSGSRTDFTLTIYPVEADDVATYYCQQSNEDPYTFGGGTKLEIK
notes: murine IgG
For B16, the binding result is on record as “binds”.

B17: SCT-Fa095 (antibody, V domains shown)
VH: QVQLKESGPGLVAPSQSLSITCTVSGFSLTSSVISWVRQPPGKGLEWLGIIWAGGDTNYNSALKSRLSISKDNSKSQVFLKMNSLQTDDTARYYCARNLNAMDYWGQGTSVTVSS
VL: DVLMTQTPLSLTVSLGDQASISCRSSQSIVHSNGNTYLEWFLQKPGQSPKLLIYKVSNRFSGVPDRFSGSGSGTDFTLKISRVEAEDLGVYYCFQGSHVPWTFGGGTKLEIK
notes: murine IgG
As to B17, the binding result is recorded as “binds”.

B18: SCT-Fa068 (antibody, V domains shown)
VH: EVQLQQSGTVLARPGASVKMSCKTSGYTFTRYWMHWVKQRPGQGLEWIGAIYPGNSDTNYNQKIKGKAKLTAVTTASTAYMELSSLTNEDSAVYYCTFYYGNYVNYWGQGTTLTVSS
VL: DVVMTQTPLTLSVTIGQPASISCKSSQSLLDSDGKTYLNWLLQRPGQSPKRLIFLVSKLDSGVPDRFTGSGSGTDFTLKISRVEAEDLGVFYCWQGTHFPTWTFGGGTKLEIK
notes: murine IgG
In the case of B18, the binding result was “binds”.

B19: SCT-Fa064 (antibody, V domains shown)
VH: B18 VH with G66D, Y99F
VL: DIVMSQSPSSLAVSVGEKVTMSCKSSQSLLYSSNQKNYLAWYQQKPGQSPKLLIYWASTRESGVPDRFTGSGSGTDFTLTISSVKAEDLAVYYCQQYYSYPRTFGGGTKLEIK
notes: murine IgG
For the molecule B19, the binding result is “binds”.

B20: SCT-Fa069 (antibody, V domains shown)
VH: B18 VH with K65Q, G66D, Y99F
VL: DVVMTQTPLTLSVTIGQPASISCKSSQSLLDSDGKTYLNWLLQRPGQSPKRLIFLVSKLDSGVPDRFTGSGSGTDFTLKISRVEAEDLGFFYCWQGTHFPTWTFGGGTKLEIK
notes: murine IgG
As for B20, the binding result is recorded as “binds”.

B21: SCT-Fa067 (antibody, V domains shown)
VH: B18 VH
VL: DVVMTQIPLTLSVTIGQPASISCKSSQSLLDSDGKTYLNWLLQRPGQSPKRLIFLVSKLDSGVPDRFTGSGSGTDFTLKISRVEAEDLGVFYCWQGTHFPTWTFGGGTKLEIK
notes: murine IgG
In the case of B21, the binding result was “binds”.

B22: SCT-Fa065 (antibody, V domains shown)
VH: B18 VH with S84I
VL: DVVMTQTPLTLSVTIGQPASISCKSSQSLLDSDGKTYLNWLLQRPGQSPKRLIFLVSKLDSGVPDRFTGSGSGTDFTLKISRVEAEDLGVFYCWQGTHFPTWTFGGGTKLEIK
notes: murine IgG
Regarding B22, the binding result was “binds”.

B23: SCT-Fa063 (antibody, V domains shown)
VH: B18 VH with T30I, N59T, I64F, K67R, T75S, Y106F
VL: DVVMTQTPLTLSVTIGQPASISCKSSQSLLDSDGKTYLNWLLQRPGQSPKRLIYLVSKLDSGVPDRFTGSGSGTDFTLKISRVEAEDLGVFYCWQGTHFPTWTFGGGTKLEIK
notes: murine IgG
Regarding B23, the binding result is listed as “binds”.

B24: SCT-Fa066 (antibody, V domains shown)
VH: B18 VH with V93A
VL: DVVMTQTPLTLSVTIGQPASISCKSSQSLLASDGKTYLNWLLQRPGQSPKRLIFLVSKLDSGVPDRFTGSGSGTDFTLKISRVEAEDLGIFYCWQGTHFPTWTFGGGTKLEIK
notes: murine IgG
In the case of B24, the binding result is reported as “binds”.

B25: SCT-Fa062 (antibody, V domains shown)
VH: B18 VH with S25P
VL: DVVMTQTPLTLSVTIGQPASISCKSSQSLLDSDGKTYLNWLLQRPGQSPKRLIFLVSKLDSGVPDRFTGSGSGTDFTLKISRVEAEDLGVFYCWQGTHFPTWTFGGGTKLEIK
notes: murine IgG
In the case of B25, the binding result was “binds”.

B26: SCT-Fa076 (antibody, V domains shown)
VH: EVQVLETGGGLVQPGGSRGLSCEGSGFTFSGFWMSWVRQTPGKTLEWIGDINSDGSTIHYGPSMKDRFTIFRDNDKNTLYLQMNNVRSEDTAKYFCMSLLLNVWGTGTTVTVSS
VL: DIQMTQSPSSLSASLGERVSLTCRASQEISGYLSWLQQKPDGTIKRLISRASSLDFGVPKRFRGSRSGSDYSLTISSLESEDFADYYCLQYANYPLTFGAGTKLELK
notes: murine IgG
As for B26, the binding result is on record as “binds”.

B27: SCT-Fa077 (antibody, V domains shown)
VH: EVRLVESEGGLVQPGSSMKLSCTASGFTFSDYYMAWVRQVPEKGLEWVANINYDGTNTYYLDSLKSRFIISRDNAKNILYLQMSGLKSEDTATYYCGRGIYYYGRSHAMDYWGQGTSVTVSS
VL: DILMTQSPSSMSVSLGDTVSITCHASQGINNNVGWLQQKPGKSFKGLIYHGTNLEDGVPSRFSGSGSGADYSLTIYSLESEDFADYYCVQYDQFPPTFGGGTKLEIK
notes: murine IgG
Regarding B27, the binding result was “binds”.

B28: SCT-Fa057 (antibody, V domains shown)
VH: EVQLQQSGPVLVKPGASVKMSCKASGYTFTDYYMNWVKQSHGKSLEWIGVINPYNGGTSYNQKFKGKATLTVDKSSSTAYMELNSLTSEDSAVYYCARGGDYDVNYSAMDYWGQGTSVTVSS
VL: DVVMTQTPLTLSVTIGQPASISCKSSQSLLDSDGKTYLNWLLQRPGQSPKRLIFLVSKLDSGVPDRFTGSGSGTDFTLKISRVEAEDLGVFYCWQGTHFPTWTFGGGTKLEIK
notes: murine IgG
For B28, the binding result is listed as “binds”.
